Experiment: melting temperature; melt of duplexes
Conditions: sodium 0.0675 M; strand 1 µM
Substance “CGACGTGCTATATGTGCTG+CAGCACATCCAGCACGTCG (((((((((..((((((((+))))))))..)))))))))” has a Tm of 50.2 °C.
Substance “CGACGTGCTATATGTGCTG+CAGCACATTCTGCACGTCG ((((((((...((((((((+))))))))...))))))))” has a Tm of 49 °C.
Work on “CGACGTGCTAGATGTGCTG+CAGCACATTTAGCACGTCG ((((((((((.((((((((+)))))))).))))))))))” yielded a Tm of 56.6 °C.
For “CGACGTGCCTGATGTGCTG+CAGCACATCAAGCACGTCG ((((((((.((((((((((+)))))))))).))))))))”, the Tm was 56.6 °C.
“CGACGTGCAGTATGTGCTG+CAGCACATTACGCACGTCG ((((((((...((((((((+))))))))...))))))))” showed a Tm of 52.1 °C.
Substance “CGACGTGCCGTATGTGCTG+CAGCACATGGAGCACGTCG ((((((((...((((((((+))))))))...))))))))” has a Tm of 50.8 °C.
For “CGACGTGCGCAATGTGCTG+CAGCACATAGAGCACGTCG ((((((((.(.((((((((+)))))))).).))))))))”, the Tm was 54.7 °C.
For “CGACGTGCCTCATGTGCTG+CAGCACATAGTGCACGTCG ((((((((...((((((((+))))))))...))))))))”, the Tm was 45.9 °C.
With “CGACGTGCCCTATGTGCTG+CAGCACATCGGGCACGTCG ((((((((((.((((((((+)))))))).))))))))))” the Tm was 58.7 °C.
“CGACGTGCGGGATGTGCTG+CAGCACATATCGCACGTCG (((((((((..((((((((+))))))))..)))))))))” gave a Tm of 56.7 °C.
For “CGACGTGCTTAATGTGCTG+CAGCACATGTAGCACGTCG (((((((((..((((((((+))))))))..)))))))))”, the Tm was 53.4 °C.
In the case of “CGACGTGCTTCATGTGCTG+CAGCACATAGTGCACGTCG ((((((((...((((((((+))))))))...))))))))”, the Tm is reported as 44.4 °C.
With “CGACGTGCTCGATGTGCTG+CAGCACATAGAGCACGTCG ((((((((((.((((((((+)))))))).))))))))))” the Tm was 59.5 °C.
In the case of “CGACGTGCCCCATGTGCTG+CAGCACATCGAGCACGTCG ((((((((.(.((((((((+)))))))).).))))))))”, the Tm is reported as 48.7 °C.
“CGACGTGCCACATGTGCTG+CAGCACATCGTGCACGTCG ((((((((...((((((((+))))))))...))))))))” gave a Tm of 46.3 °C.
With “CGACGTGCTTAATGTGCTG+CAGCACATATCGCACGTCG ((((((((...((((((((+))))))))...))))))))” the Tm was 48 °C.
“CGACGTGCACGATGTGCTG+CAGCACATTTGGCACGTCG ((((((((...((((((((+))))))))...))))))))” gave a Tm of 46.8 °C.
“CGACGTGCTTGATGTGCTG+CAGCACATGCTGCACGTCG ((((((((...((((((((+))))))))...))))))))” showed a Tm of 48.1 °C.
“CGACGTGCATAATGTGCTG+CAGCACATGAGGCACGTCG ((((((((.(.((((((((+)))))))).).))))))))” gave a Tm of 53.2 °C.
“CGACGTGCTTGATGTGCTG+CAGCACATCGAGCACGTCG (((((((((.(((((((((+))))))))).)))))))))” showed a Tm of 60.6 °C.
“CGACGTGCAAAATGTGCTG+CAGCACATATGGCACGTCG ((((((((.(.((((((((+)))))))).).))))))))” gave a Tm of 50.3 °C.
In the case of “CGACGTGCTACATGTGCTG+CAGCACATAGTGCACGTCG ((((((((...((((((((+))))))))...))))))))”, the Tm is reported as 48.1 °C.
“CGACGTGCCGGATGTGCTG+CAGCACATTCAGCACGTCG ((((((((.(.((((((((+)))))))).).))))))))” showed a Tm of 52.4 °C.
With “CGACGTGCGATATGTGCTG+CAGCACATGTCGCACGTCG ((((((((((.((((((((+)))))))).))))))))))” the Tm was 61 °C.
Work on “CGACGTGCACGATGTGCTG+CAGCACATCCGGCACGTCG ((((((((..(((((((((+)))))))))..))))))))” yielded a Tm of 52.4 °C.
With “CGACGTGCTACATGTGCTG+CAGCACATCAAGCACGTCG (((((((((..((((((((+))))))))..)))))))))” the Tm was 50.6 °C.
In the case of “CGACGTGCGAGATGTGCTG+CAGCACATGTTGCACGTCG ((((((((.(.((((((((+)))))))).).))))))))”, the Tm is reported as 54.3 °C.
In the case of “CGACGTGCTCCATGTGCTG+CAGCACATAGAGCACGTCG ((((((((((.((((((((+)))))))).))))))))))”, the Tm is reported as 56.2 °C.
Substance “CGACGTGCGGCATGTGCTG+CAGCACATAAGGCACGTCG ((((((((...((((((((+))))))))...))))))))” has a Tm of 51.3 °C.
For “CGACGTGCTGAATGTGCTG+CAGCACATATAGCACGTCG (((((((((..((((((((+))))))))..)))))))))”, the Tm was 53.7 °C.
In the case of “CGACGTGCATAATGTGCTG+CAGCACATGTAGCACGTCG ((((((((...((((((((+))))))))...))))))))”, the Tm is reported as 52.6 °C.
“CGACGTGCTTAATGTGCTG+CAGCACATCAGGCACGTCG ((((((((.(.((((((((+)))))))).).))))))))” gave a Tm of 50.8 °C.
In the case of “CGACGTGCGGTATGTGCTG+CAGCACATACCGCACGTCG (((((((((((((((((((+)))))))))))))))))))”, the Tm is reported as 66 °C.
For “CGACGTGCTGAATGTGCTG+CAGCACATGGCGCACGTCG ((((((((...((((((((+))))))))...))))))))”, the Tm was 52.3 °C.
For “CGACGTGCCAGATGTGCTG+CAGCACATTCAGCACGTCG ((((((((...((((((((+))))))))...))))))))”, the Tm was 50.7 °C.
For “CGACGTGCCCGATGTGCTG+CAGCACATACGGCACGTCG (((((((((..((((((((+))))))))..)))))))))”, the Tm was 53.5 °C.
Work on “CGACGTGCGTAATGTGCTG+CAGCACATGACGCACGTCG ((((((((((.((((((((+)))))))).))))))))))” yielded a Tm of 58 °C.
In the case of “CGACGTGCCTCATGTGCTG+CAGCACATCATGCACGTCG ((((((((.(.((((((((+)))))))).).))))))))”, the Tm is reported as 47.2 °C.
For “CGACGTGCCGAATGTGCTG+CAGCACATTTTGCACGTCG ((((((((..(((((((((+)))))))))..))))))))”, the Tm was 51.7 °C.
“CGACGTGCCACATGTGCTG+CAGCACATCAAGCACGTCG ((((((((...((((((((+))))))))...))))))))” showed a Tm of 47.7 °C.
With “CGACGTGCGCGATGTGCTG+CAGCACATCGGGCACGTCG ((((((((.((((((((((+)))))))))).))))))))” the Tm was 63.6 °C.
“CGACGTGCTATATGTGCTG+CAGCACATACCGCACGTCG ((((((((..(((((((((+)))))))))..))))))))” gave a Tm of 49.3 °C.
In the case of “CGACGTGCTTAATGTGCTG+CAGCACATAGTGCACGTCG ((((((((...((((((((+))))))))...))))))))”, the Tm is reported as 44 °C.
Substance “CGACGTGCCTGATGTGCTG+CAGCACATAAGGCACGTCG ((((((((((.((((((((+)))))))).))))))))))” has a Tm of 59 °C.
For “CGACGTGCGTGATGTGCTG+CAGCACATTTGGCACGTCG ((((((((...((((((((+))))))))...))))))))”, the Tm was 50.4 °C.
Substance “CGACGTGCGCGATGTGCTG+CAGCACATCAAGCACGTCG ((((((((..(((((((((+)))))))))..))))))))” has a Tm of 59 °C.
“CGACGTGCTCGATGTGCTG+CAGCACATTATGCACGTCG ((((((((...((((((((+))))))))...))))))))” showed a Tm of 49.6 °C.
In the case of “CGACGTGCTCAATGTGCTG+CAGCACATTGCGCACGTCG ((((((((.((((((((((+)))))))))).))))))))”, the Tm is reported as 56.6 °C.
For “CGACGTGCGACATGTGCTG+CAGCACATACAGCACGTCG ((((((((...((((((((+))))))))...))))))))”, the Tm was 53.1 °C.
“CGACGTGCAACATGTGCTG+CAGCACATATGGCACGTCG ((((((((.(.((((((((+)))))))).).))))))))” showed a Tm of 49.2 °C.
Work on “CGACGTGCATAATGTGCTG+CAGCACATCAAGCACGTCG ((((((((.(.((((((((+)))))))).).))))))))” yielded a Tm of 48.4 °C.
“CGACGTGCGTCATGTGCTG+CAGCACATCATGCACGTCG ((((((((.(.((((((((+)))))))).).))))))))” gave a Tm of 50.8 °C.
With “CGACGTGCGGTATGTGCTG+CAGCACATAGCGCACGTCG (((((((((.(((((((((+))))))))).)))))))))” the Tm was 62.5 °C.
“CGACGTGCGTTATGTGCTG+CAGCACATGCGGCACGTCG ((((((((...((((((((+))))))))...))))))))” gave a Tm of 49.6 °C.
“CGACGTGCTGTATGTGCTG+CAGCACATAGCGCACGTCG ((((((((..(((((((((+)))))))))..))))))))” gave a Tm of 49.9 °C.
For “CGACGTGCCTCATGTGCTG+CAGCACATGTAGCACGTCG ((((((((..(((((((((+)))))))))..))))))))”, the Tm was 52.9 °C.
Substance “CGACGTGCAGCATGTGCTG+CAGCACATAACGCACGTCG ((((((((...((((((((+))))))))...))))))))” has a Tm of 47.6 °C.
“CGACGTGCGACATGTGCTG+CAGCACATTTGGCACGTCG ((((((((.(.((((((((+)))))))).).))))))))” gave a Tm of 50.6 °C.
For “CGACGTGCACTATGTGCTG+CAGCACATACAGCACGTCG ((((((((..(((((((((+)))))))))..))))))))”, the Tm was 45.4 °C.
“CGACGTGCCTCATGTGCTG+CAGCACATTGAGCACGTCG ((((((((...((((((((+))))))))...))))))))” showed a Tm of 51.4 °C.
Work on “CGACGTGCGACATGTGCTG+CAGCACATGTTGCACGTCG ((((((((.((((((((((+)))))))))).))))))))” yielded a Tm of 60.9 °C.
In the case of “CGACGTGCTATATGTGCTG+CAGCACATCTCGCACGTCG ((((((((.(.((((((((+)))))))).).))))))))”, the Tm is reported as 48.3 °C.
“CGACGTGCCTTATGTGCTG+CAGCACATGTAGCACGTCG ((((((((...((((((((+))))))))...))))))))” gave a Tm of 49.1 °C.
Work on “CGACGTGCATCATGTGCTG+CAGCACATGCGGCACGTCG ((((((((..(((((((((+)))))))))..))))))))” yielded a Tm of 52.7 °C.
“CGACGTGCAGCATGTGCTG+CAGCACATATCGCACGTCG ((((((((...((((((((+))))))))...))))))))” showed a Tm of 46.6 °C.
“CGACGTGCTACATGTGCTG+CAGCACATCGCGCACGTCG ((((((((...((((((((+))))))))...))))))))” showed a Tm of 46.9 °C.
“CGACGTGCATGATGTGCTG+CAGCACATCCGGCACGTCG ((((((((..(((((((((+)))))))))..))))))))” showed a Tm of 54.4 °C.
In the case of “CGACGTGCAGCATGTGCTG+CAGCACATAGTGCACGTCG (((((((((..((((((((+))))))))..)))))))))”, the Tm is reported as 44.4 °C.
With “CGACGTGCCCGATGTGCTG+CAGCACATGCGGCACGTCG (((((((((..((((((((+))))))))..)))))))))” the Tm was 54.6 °C.
With “CGACGTGCTCGATGTGCTG+CAGCACATACTGCACGTCG ((((((((...((((((((+))))))))...))))))))” the Tm was 49 °C.
For “CGACGTGCACAATGTGCTG+CAGCACATGGGGCACGTCG ((((((((.(.((((((((+)))))))).).))))))))”, the Tm was 55.2 °C.
With “CGACGTGCTCCATGTGCTG+CAGCACATTCTGCACGTCG ((((((((...((((((((+))))))))...))))))))” the Tm was 47.2 °C.
